Data taken from article PMC3061051 (Nucleic Acids Research, 2010).
Numbering of substitutions follows the chain as printed. In names and notes the source's numbering stands. Several values for one entry are separate records, joined by “and”; a condition that tells them apart may be missing. Equal values may be shown once.

Key:
AUC [1] = biological target: the molecule itself; assay: AUC
AUC [2] = biological target: the molecule itself; assay: AUC; remark: listed apart in the source
SEC = biological target: the molecule itself; assay: SEC
W227A-F231A-RECQ1T1 = W227A-F231A-RECQ1T1 (human, UniProt P46063 49-616, W227A;F231A); assay: EMSA
RECQ1T1 (RECQ1 49-616) = RECQ1T1 (RECQ1 49-616) (human, UniProt P46063 49-616); assay: EMSA
[3] = biological target: T1, Δ(F561-T562-T566)-RECQ1T1 (human, UniProt P46063 49-616, del561-562;del566-566); assay: EMSA
T1 sequence: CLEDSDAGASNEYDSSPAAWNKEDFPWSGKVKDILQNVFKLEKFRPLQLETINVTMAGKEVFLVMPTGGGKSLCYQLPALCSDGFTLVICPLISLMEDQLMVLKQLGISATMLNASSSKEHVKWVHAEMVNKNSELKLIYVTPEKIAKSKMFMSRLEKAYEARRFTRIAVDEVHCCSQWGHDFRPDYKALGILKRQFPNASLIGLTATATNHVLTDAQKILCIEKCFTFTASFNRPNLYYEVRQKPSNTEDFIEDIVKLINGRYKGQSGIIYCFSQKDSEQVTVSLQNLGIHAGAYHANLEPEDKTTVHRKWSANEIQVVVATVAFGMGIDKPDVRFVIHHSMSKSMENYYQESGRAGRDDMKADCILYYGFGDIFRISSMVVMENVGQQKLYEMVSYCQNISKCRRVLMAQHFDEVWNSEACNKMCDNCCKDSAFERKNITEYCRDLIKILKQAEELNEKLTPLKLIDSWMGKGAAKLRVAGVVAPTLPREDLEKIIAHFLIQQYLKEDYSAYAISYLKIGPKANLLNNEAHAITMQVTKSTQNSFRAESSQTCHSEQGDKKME

[4] = biological target: T2, Y559A-S560A-F561A-RECQ1T1 (human, UniProt P46063 49-616, Y559A;S560A;F561A); assay: EMSA
T2 sequence: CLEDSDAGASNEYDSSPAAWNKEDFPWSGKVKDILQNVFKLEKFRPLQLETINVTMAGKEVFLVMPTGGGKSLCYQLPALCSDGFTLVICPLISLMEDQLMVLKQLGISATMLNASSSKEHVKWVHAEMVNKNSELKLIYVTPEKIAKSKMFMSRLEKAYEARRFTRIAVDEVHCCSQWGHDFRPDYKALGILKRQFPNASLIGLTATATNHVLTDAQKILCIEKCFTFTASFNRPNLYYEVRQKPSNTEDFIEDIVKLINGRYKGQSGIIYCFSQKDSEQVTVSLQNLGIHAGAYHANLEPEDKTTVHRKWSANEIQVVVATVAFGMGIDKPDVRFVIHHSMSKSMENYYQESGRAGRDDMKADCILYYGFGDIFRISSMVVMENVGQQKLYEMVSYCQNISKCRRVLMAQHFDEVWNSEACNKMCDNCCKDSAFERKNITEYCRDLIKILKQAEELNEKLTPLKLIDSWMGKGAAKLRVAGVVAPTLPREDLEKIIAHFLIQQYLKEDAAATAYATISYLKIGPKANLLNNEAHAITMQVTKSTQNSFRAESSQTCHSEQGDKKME

Y564A-RECQ1T1 = biological target: T3, Y564A-RECQ1T1 (human, UniProt P46063 49-616, Y564A); assay: EMSA
T3 sequence: T2 sequence with A511Y, A512S, A513F, Y516A

B1: Full-length RECQ1 (RECQ1^FL) (natural protein, human, UniProt P46063 1-649, looked up)
chain: MASVSALTEELDSITSELHAVEIQIQELTERQQELIQKKKVLTKKIKQCLEDSDAGASNEYDSSPAAWNKEDFPWSGKVKDILQNVFKLEKFRPLQLETINVTMAGKEVFLVMPTGGGKSLCYQLPALCSDGFTLVICPLISLMEDQLMVLKQLGISATMLNASSSKEHVKWVHAEMVNKNSELKLIYVTPEKIAKSKMFMSRLEKAYEARRFTRIAVDEVHCCSQWGHDFRPDYKALGILKRQFPNASLIGLTATATNHVLTDAQKILCIEKCFTFTASFNRPNLYYEVRQKPSNTEDFIEDIVKLINGRYKGQSGIIYCFSQKDSEQVTVSLQNLGIHAGAYHANLEPEDKTTVHRKWSANEIQVVVATVAFGMGIDKPDVRFVIHHSMSKSMENYYQESGRAGRDDMKADCILYYGFGDIFRISSMVVMENVGQQKLYEMVSYCQNISKCRRVLMAQHFDEVWNSEACNKMCDNCCKDSAFERKNITEYCRDLIKILKQAEELNEKLTPLKLIDSWMGKGAAKLRVAGVVAPTLPREDLEKIIAHFLIQQYLKEDYSFTAYATISYLKIGPKANLLNNEAHAITMQVTKSTQNSFRAESSQTCHSEQGDKKMEEKNSGNFQKKAANMLQQSGSKNTGAKKRKIDDA
AUC [1]
  stoichiometry N: 4 and 2

B2: Y564A-RECQ1^FL (natural protein, human, UniProt P46063 1-649, looked up)
chain: B1 chain with Y564A
AUC [1]
  stoichiometry N: 2 and 4

B3: Δ8-Y564A-RECQ1^FL (natural protein, human, UniProt P46063 1-649, looked up)
chain: MASVSALTEELDSITSELHAVEIQIQELTERQQELIQKKKVLTKKIKQCLEDSDAGASNEYDSSPAAWNKEDFPWSGKVKDILQNVFKLEKFRPLQLETINVTMAGKEVFLVMPTGGGKSLCYQLPALCSDGFTLVICPLISLMEDQLMVLKQLGISATMLNASSSKEHVKWVHAEMVNKNSELKLIYVTPEKIAKSKMFMSRLEKAYEARRFTRIAVDEVHCCSQWGHDFRPDYKALGILKRQFPNASLIGLTATATNHVLTDAQKILCIEKCFTFTASFNRPNLYYEVRQKPSNTEDFIEDIVKLINGRYKGQSGIIYCFSQKDSEQVTVSLQNLGIHAGAYHANLEPEDKTTVHRKWSANEIQVVVATVAFGMGIDKPDVRFVIHHSMSKSMENYYQESGRAGRDDMKADCILYYGFGDIFRISSMVVMENVGQQKLYEMVSYCQNISKCRRVLMAQHFDEVWNSEACNKMCDNCCKDSAFERKNITEYCRDLIKILKQAEELNEKLTPLKLIDSWMGKGAAKLRVAGVVAPTLPREDLEKIIAHFLIQQYAAGPKANLLNNEAHAITMQVTKSTQNSFRAESSQTCHSEQGDKKMEEKNSGNFQKKAANMLQQSGSKNTGAKKRKIDDA
AUC [1]
  stoichiometry N: 2

B4: RECQ1^49-616 (truncated catalytic core of human RECQ1 helicase) (domain or fragment, UniProt P46063 49-616, looked up)
chain: T2 sequence with A511Y, A512S, A513F
AUC [2]
  stoichiometry N: 2

B5: Y564A-RECQ1^T1 (domain or fragment, human, UniProt P46063 49-616, looked up)
chain: T2 sequence with A511Y, A512S, A513F, Y516A
SEC
  stoichiometry N: 2

B6: W227A-F231A-RECQ1^T1 (domain or fragment, human, UniProt P46063 49-616, looked up)
chain: T2 sequence with W179A, F183A, A511Y, A512S, A513F
SEC
  stoichiometry N: 2

B7: Fork 20 duplex (dsDNA)
DNA 1: GAACGAACACATCGGGTACGTTTTTTTTTTTTTTTTTTTTTTTTTTTTTT
DNA 2: TTTTTTTTTTTTTTTTTTTTTTTTTTTTTTCGTACCCGATGTGTTCGTTC
W227A-F231A-RECQ1T1
  Kd: 10 ± 2 nM
RECQ1T1 (RECQ1 49-616)
  Kd: 8 ± 2 nM

B8: X12 Holliday junction (structured_DNA)
DNA 1: GACGCTGCCGAATTCTGGCTTGCTAGGACATCTTTGCCCACGTTGACCCG
DNA 2: CGGGTCAACGTGGGCAAAGATGTCCTAGCAATGTAATCGTCTATGACGTC
DNA 3: GACGTCATAGACGATTACATTGCTAGGACATGCTGTCTAGAGACTATCGC
DNA 4: GCGATAGTCTCTAGACAGCATGTCCTAGCAAGCCAGAATTCGGCAGCGTC
[3]
  binding result: no binding
W227A-F231A-RECQ1T1
  binding result: no binding
RECQ1T1 (RECQ1 49-616)
  binding result: no binding
[4]
  binding result: no binding
Y564A-RECQ1T1
  binding result: no binding
